In patent US20110207917A1 one finds % reduction of binding after Grp78 siRNA transfection data, which are given here for one substance.

This test concerns the target SAM-6 Receptor (SAM-6/R) glycoprotein, about 80 kDa Grp78 variant of tumor cells (human) (UniProt P11021). The test is described as follows: FACS on BXPC-3 cells transfected with Grp78 siRNA.

Sequence of SAM-6 Receptor (SAM-6/R) glycoprotein, about 80 kDa Grp78 variant of tumor cells (human) (P11021 18-654, change not shown): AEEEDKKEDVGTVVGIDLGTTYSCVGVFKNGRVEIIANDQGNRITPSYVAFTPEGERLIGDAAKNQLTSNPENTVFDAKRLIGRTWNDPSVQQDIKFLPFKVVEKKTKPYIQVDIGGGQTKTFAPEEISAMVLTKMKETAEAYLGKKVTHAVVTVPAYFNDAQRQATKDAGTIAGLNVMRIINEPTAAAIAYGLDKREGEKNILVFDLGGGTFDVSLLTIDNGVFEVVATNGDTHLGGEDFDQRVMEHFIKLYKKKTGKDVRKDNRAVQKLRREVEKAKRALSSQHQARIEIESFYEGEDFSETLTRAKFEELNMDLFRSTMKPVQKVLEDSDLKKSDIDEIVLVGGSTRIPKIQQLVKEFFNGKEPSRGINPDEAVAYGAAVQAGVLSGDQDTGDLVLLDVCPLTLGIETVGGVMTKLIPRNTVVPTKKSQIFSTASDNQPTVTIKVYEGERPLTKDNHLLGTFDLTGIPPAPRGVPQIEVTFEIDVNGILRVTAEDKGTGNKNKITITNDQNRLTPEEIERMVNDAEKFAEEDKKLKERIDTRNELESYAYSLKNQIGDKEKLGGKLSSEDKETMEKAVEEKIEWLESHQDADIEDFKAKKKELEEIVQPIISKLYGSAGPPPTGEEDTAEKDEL

Consider anti-GRP78 antibody clone ET-21 (Sigma), for which the % reduction of binding after Grp78 siRNA transfection came to 76%.
